Experimental findings from patent US20150307625A1 (Bayer, published 2015) are described below.

Test [1] deals with T1, human activated Protein C (human, UniProt P04070 43-461).
T1 construct: also called human aPC; hAPC
As to the kind of experiment: direct ELISA, aPC coated, hIgG1. For orientation: In an ELISA, binding on a coated surface is turned into a signal by an enzyme label.

Test [2] addresses T1, human activated Protein C. The test can be described thus: cell-based or functional assay.
Test [3] addresses T1, human activated Protein C. As to the kind of experiment: ELISA titration, IgG against Fab.
Test [4] has as its target T2, dog activated Protein C (dog, UniProt Q28278 43-456).
T2 construct: mature; also called dog aPC; dAPC
T2 sequence (looked up): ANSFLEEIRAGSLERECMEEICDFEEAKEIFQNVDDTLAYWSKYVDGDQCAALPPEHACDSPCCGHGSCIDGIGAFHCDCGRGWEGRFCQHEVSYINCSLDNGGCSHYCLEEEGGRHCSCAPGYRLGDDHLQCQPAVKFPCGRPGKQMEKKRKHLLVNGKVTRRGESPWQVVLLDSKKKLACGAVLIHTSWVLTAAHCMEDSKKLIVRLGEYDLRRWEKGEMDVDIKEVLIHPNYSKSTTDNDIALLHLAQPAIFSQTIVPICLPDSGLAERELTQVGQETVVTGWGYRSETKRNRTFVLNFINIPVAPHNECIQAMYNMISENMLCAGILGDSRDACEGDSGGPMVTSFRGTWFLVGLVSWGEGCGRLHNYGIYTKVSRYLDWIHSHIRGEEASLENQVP
The test can be described thus: direct ELISA, antigen coated at 1 ug/ml, IgG at 20 nM, anti-human IgG-HRP, AmplexRed (RFU).

Test [5] has as its target T2, dog activated Protein C. As to the kind of experiment: direct ELISA, antigen coated at 100 ng/well, Fab at 20 nM (1 ug/ml), anti-human Fab-HRP, AmplexRed (RFU). How it is done:
(§1) FIG. 3 depicts a graph characterizing anti-APC Fabs by direct ELISA. An ELISA plate was coated with human PC (hPC), human aPC (hAPC), dog aPC (dAPC), mouse aPC (mAPC) at 100 ng per well. Purified Fabs designate on the X-axis were added to the plate at 20 nM (1 ug/ml). Bound Fab was detected by the secondary antibody (anti-human Fab-HRP) followed by HRP substrate AmplexRed. The purified Fabs preferentially bind to human aPC and, with the exception of Fab R41C17, show little to no binding to human PC.
(§2) Antigens were coated directly on ELISA plates. Coating antigens included human PC (plasma-derived), human aPC (recombinant), dog aPC (plasma-derived), and mouse aPC (recombinant) at 100 ng/well in PBS/Ca buffer. After blocking the plate with 5% milk/PBS and washing the plate with PBS-Tween20, soluble Fabs (1 ug/ml, 20 nM) were added to the plate and incubated for 1 h at RT with shaking. Fab binding was detected with anti-human Fab (lambda) antibody-HRP and Amplex red as substrate. […] In contrast, R41C17 binds to both human APC and human PC. Also shown in FIG. 3 is cross-species reactivity of Fabs by ELISA.

Test [6] addresses T3, human Protein C (zymogen) (human, UniProt P04070 43-461).
T3 construct: also called human PC; hPC
The description is as above. How it is done: as §1, §2

Test [7] deals with T4, mouse Protein C (zymogen) (mouse, UniProt P33587 42-460).
T4 construct: mature; also called mouse PC
T4 sequence (looked up): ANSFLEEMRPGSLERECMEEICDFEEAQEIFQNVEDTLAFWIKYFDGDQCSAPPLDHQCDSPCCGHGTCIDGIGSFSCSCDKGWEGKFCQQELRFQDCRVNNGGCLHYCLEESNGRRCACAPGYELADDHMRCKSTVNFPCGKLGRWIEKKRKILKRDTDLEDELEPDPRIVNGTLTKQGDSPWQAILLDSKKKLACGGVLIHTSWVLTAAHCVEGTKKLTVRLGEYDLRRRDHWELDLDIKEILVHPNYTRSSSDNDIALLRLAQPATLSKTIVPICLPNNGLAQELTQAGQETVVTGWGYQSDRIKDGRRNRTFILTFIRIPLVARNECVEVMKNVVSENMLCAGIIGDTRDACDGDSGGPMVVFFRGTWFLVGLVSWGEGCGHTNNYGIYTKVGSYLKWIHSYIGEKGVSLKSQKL
As to the kind of experiment: direct ELISA, mPC coated at 10 ug/ml, Fab at 20 nM, anti-human Fab-HRP, AmplexRed (RFU). How it is done:
To determine the binding selectivity of these fabs, their binding activities to the proenzyme human PC, to thrombin (FIIa), and to the activated Factor II (FIIa, thrombin), Factor VII (FVIIa), Factor IX (FIXa), and Factor X (FXa) were also assessed by ELISA. Briefly, an ELISA plate was coated with human aPC at 1 ug/ml, mouse PC at 10 ug/ml, dog PC at 10 ug/ml, other coagulation factors (FIIa, FVIIa, FIXa, FXa) at 5-10 ug/ml. Anti-aPC Fabs were added to the wells at 20 nM (1 ug/ml). Bound Fabs were detected by the secondary antibody (anti-human Fab-HRP) followed by HRP substrate AmplexRed.

Test [8] concerns the target T1, human activated Protein C. As to the kind of experiment: Biacore, Fab. On the technique in general: Surface plasmon resonance follows binding to a sensor surface in real time, without labels.
In the next test the target is T5, dog Protein C (zymogen) (dog, UniProt Q28278 43-456).
T5 construct: mature; also called dog PC
T5 sequence (looked up): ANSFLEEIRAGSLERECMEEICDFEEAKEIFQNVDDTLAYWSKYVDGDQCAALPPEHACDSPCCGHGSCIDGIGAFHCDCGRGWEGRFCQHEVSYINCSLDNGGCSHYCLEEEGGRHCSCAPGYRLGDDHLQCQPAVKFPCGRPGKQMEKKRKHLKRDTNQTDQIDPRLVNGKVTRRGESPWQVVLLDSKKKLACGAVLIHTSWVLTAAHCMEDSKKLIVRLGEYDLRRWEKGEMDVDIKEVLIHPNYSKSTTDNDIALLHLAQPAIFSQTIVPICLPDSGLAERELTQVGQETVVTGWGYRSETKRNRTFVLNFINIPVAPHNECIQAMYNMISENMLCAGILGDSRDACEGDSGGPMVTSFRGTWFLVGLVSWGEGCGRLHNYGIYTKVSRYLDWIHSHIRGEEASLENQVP
The test can be described thus: direct ELISA, dPC coated at 10 ug/ml, Fab at 20 nM, anti-human Fab-HRP, AmplexRed (RFU).

The target of test [9] is T1, human activated Protein C. The test can be described thus: direct ELISA, antigen coated, Fab.
In test [10] the target is T1, human activated Protein C. The test can be described thus: ELISA titration.

B1: R41E3 hIgG1 (antibody, V domains shown)
VH: EVQLLESGGGLVQPGGSLRLSCAASGFTFNNYAMTWVRQAPGKGLEWVSGVSWNGSRTHYADSVKGRFTISRDNSKNTLYLQMNSLRAEDTAVYYCARADSSSAGRWAGSLDYWGQGTLVTVTS
VL: LTQPPSASGTPGQRVTISCSGSSSNIGNNAVNWYQQLPGTAPKLLIYSNNQRPSGVPDRFSGSKSGTSASLAISGLRSEDEADYYCSSYTSSSTHVVFGGGTKLTVLG
notes: also called R41E3-IgG
In [1], B1 returned a 50% effective concentration (EC50) of 1.76 nM. In test [2], the “aPTT, inhibition of aPC activity at 163-fold molar excess” value is approximately 80%. Moreover, the “fold increase of binding affinity against the corresponding Fab” value in test [3] is approximately 50 fold. Besides, in the test with dog activated Protein C [4], the binding result is recorded as “no binding (tested: 20 nM)”.

B2: R41E3 Fab (Fab, V domains shown)
VH: EVQLLESGGGLVQPGGSLRLSCAASGFTFNNYAMTWVRQAPGKGLEWVSGVSWNGSRTHYADSVKGRFTISRDNSKNTLYLQMNSLRAEDTAVYYCARADSSSAGRWAGSLDYWGQGTLVTVTS
VL: LTQPPSASGTPGQRVTISCSGSSSNIGNNAVNWYQQLPGTAPKLLIYSNNQRPSGVPDRFSGSKSGTSASLAISGLRSEDEADYYCSSYTSSSTHVVFGGGTKLTVLG
notes: Human Fab (lambda), expressed in E. coli
With B2, the binding result (with dog activated Protein C [5]; in [6]; in [7]; with dog Protein C (zymogen)) was “no binding (tested: 20 nM)” in each case. In addition, binding in test [8] was put at a Kd of 11 nM. In addition, the figures for the EC50 in test [9] and in test [10] were 10.4 nM and 104 nM, respectively.

In general, EC50 refers to the midpoint of the concentration-response curve. For orientation: Kd means the constant that tells how readily two partners part at equilibrium.
